From the supplement of paper PMC5998384

Tests used:
HeLa Kyoto [1] = assay: solubility in G1/S (NP-40 vs SDS abundance) (log2 ratio); higher = more soluble; details: cell cycle stage: G1/S
HeLa Kyoto [2] = assay: solubility change mitosis vs G1/S (difference of NP-40 vs SDS log2 ratios) (log2 ratio difference); higher = more soluble in mitosis
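Wherever solubility change mitosis vs G1/S (difference of NP-40 vs SDS log2 ratios) is given: synchronized HeLa Kyoto cells (double thymidine block for G1/S, nocodazole release for mitosis), protein amounts in NP-40 versus SDS lysates quantified by mass spectrometry, three biological replicates.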
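Wherever solubility in G1/S (NP-40 vs SDS abundance) is given: HeLa Kyoto cells arrested at G1/S by double thymidine block, proteins quantified by TMT10plex mass spectrometry in mild NP-40 versus SDS extracts, three biological replicates.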

EPB41L5, sequence (chain, as listed by the source): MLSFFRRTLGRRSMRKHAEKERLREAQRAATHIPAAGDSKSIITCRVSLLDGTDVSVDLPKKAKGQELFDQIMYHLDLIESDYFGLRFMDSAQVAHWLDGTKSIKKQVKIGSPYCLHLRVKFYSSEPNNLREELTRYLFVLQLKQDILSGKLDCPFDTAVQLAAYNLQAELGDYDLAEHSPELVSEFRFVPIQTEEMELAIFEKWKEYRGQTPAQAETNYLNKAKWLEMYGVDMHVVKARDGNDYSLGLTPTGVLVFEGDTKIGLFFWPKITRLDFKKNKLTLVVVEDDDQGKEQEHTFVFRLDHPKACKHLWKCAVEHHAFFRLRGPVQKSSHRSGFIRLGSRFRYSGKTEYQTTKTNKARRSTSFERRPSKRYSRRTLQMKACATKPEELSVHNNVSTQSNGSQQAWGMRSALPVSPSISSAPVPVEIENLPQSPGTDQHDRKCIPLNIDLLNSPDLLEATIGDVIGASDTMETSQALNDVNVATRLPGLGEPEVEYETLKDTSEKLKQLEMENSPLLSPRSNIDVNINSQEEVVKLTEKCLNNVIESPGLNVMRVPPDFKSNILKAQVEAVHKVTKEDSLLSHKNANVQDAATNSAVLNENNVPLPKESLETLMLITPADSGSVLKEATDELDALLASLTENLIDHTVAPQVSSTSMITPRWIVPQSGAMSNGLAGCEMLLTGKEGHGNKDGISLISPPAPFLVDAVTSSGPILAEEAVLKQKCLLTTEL

Row | Substance | solubility in G1/S (log2) (HeLa Kyoto [1]) | solubility change mitosis (log2) (HeLa Kyoto [2])
1 | MASQLQVFSPPSVSSSAFCSAKKLKIEPSGWDVSGQSSNDKYYTHSKTLPATQGQANSSHQVANFNIPAYDQGLLLPAPAVEHIVVTAADSSGSAATSTFQSSQTLTHRSNVSLLEPYQKCGLKRKSEEVDSNGSVQIIEEHPPLMLQNRTVVGAAATTTTVTTKSSSSSGEGDYQLVQHEILCSMTNSYEVLEFLGRGTFGQVAKCWKRSTKEIVAIKILKNHPSYARQGQIEVSILSRLSSENADEYNFVRSYECFQHKNHTCLVFEMLEQNLYDFLKQNKFSPLPLKYIRPILQQVATALMKLKSLGLIHADLKPENIMLVDPVRQPYRVKVIDFGSASHVSKAVCSTYLQSRYYRAPEIILGLPFCEAIDMWSLGCVIAELFLGWPLYPGASEYDQIRYISQTQGLPAEYLLSAGTKTTRFFNRDPNLGYPLWRLKTPEEHELETGIKSKEARKYIFNCLDDMAQVNMSTDLEGTDMLAEKADRREYIDLLKKMLTIDADKRITPLKTLNHQFVTMTHLLDFPHSNHVKSCFQNMEICKRRVHMYDTVSQIKSPFTTHVAPNTSTNLTMSFSNQLNTVHNQASVLASSSTAAAATLSLANSDVSLLNYQSALYPSSAAPVPGVAQQGVSLQPGTTQICTQTDPFQQTFIVCPPAFQTGLQATTKHSGFPVRMDNAVPIVPQAPAAQPLQIQSGVLTQGSCTPLMVATLHPQVATITPQYAVPFTLSCAAGRPALVEQTAAVLQAWPGGTQQILLPSTWQQLPGVALHNSVQPTAMIPEAMGSGQQLADWRNAHSHGNQYSTIMQQPSLLTNHVTLATAQPLNVGVAHVVRQQQSSSLPSKKNKQSAPVSSKSSLDVLPSQVYSLVGSSPLRTTSSYNSLVPVQDQHQPIIIPDTPSPPVSVITIRSDTDEEEDNKYKPSSSGLKPRSNVISYVTVNDSPDSDSSLSSPYSTDTLSALRGNSGSVLEGPGRVVADGTGTRTIIVPPLKTQLGDCTVATQASGLLSNKTKPVASVSGQSSGCCITPTGYRAQRGGTSAAQPLNLSQNQQSSAAPTSQERSSNPAPRRQQAFVAPLSQAPYTFQHGSPLHSTGHPHLAPAPAHLPSQAHLYTYAAPTSAAALGSTSSIAHLFSPQGSSRHAAAYTTHPSTLVHQVPVSVGPSLLTSASVAPAQYQHQFATQSYIGSSRGSTIYTGYPLSPTKISQYSYL [HIPK1] | 0.478 | -0.386
2 | EPB41L5 | -0.503 | 0.268
3 | MAAVAMTPNPVQTLQEEAVCAICLDYFTDPVSIGCGHNFCRVCVTQLWGGEDEEDRDELDREEEEEDGEEEEVEAVGAGAGWDTPMRDEDYEGDMEEEVEEEEEGVFWTSGMSRSSWDNMDYVWEEEDEEEDLDYYLGDMEEEDLRGEDEEDEEEVLEEVEEEDLDPVTPLPPPPAPRRCFTCPQCRKSFPRRSFRPNLQLANMVQVIRQMHPTPGRGSRVTDQGICPKHQEALKLFCEVDEEAICVVCRESRSHKQHSVVPLEEVVQEYKAKLQGHVEPLRKHLEAVQKMKAKEERRVTELKSQMKSELAAVASEFGRLTRFLAEEQAGLERRLREMHEAQLGRAGAAASRLAEQAAQLSRLLAEAQERSQQGGLRLLQDIKETFNRCEEVQLQPPEVWSPDPCQPHSHDFLTDAIVRKMSRMFCQAARVDLTLDPDTAHPALMLSPDRRGVRLAERRQEVADHPKRFSADCCVLGAQGFRSGRHYWEVEVGGRRGWAVGAARESTHHKEKVGPGGSSVGSGDASSSRHHHRRRRLHLPQQPLLQREVWCVGTNGKRYQAQSSTEQTLLSPSEKPRRFGVYLDYEAGRLGFYNAETLAHVHTFSAAFLGERVFPFFRVLSKGTRIKLCP [TRIM41] | -0.886 | 0.254
4 | MALEGMSKRKRKRSVQEGENPDDGVRGSPPEDYRLGQVASSLFRGEHHSRGGTGRLASLFSSLEPQIQPVYVPVPKQTIKKTKRNEEEESTSQIERPLSQEPAKKVKAKKKHTNAEKKLADRESALASADLEEEIHQKQGQKRKNSQPGVKVADRKILDDTEDTVVSQRKKIQINQEEERLKNERTVFVGNLPVTCNKKKLKSFFKEYGQIESVRFRSLIPAEGTLSKKLAAIKRKIHPDQKNINAYVVFKEESAATQALKRNGAQIADGFRIRVDLASETSSRDKRSVFVGNLPYKVEESAIEKHFLDCGSIMAVRIVRDKMTGIGKGFGYVLFENTDSVHLALKLNNSELMGRKLRVMRSVNKEKFKQQNSNPRLKNVSKPKQGLNFTSKTAEGHPKSLFIGEKAVLLKTKKKGQKKSGRPKKQRKQK [RBM34] | -2.26 | 1.46
